# Measurements: patent US20250302939A1, “VACCINE FOR HUMAN T-LY[…]-1” (The United States of America, as represented by the …, priority 2022, published 2025)
# System: MHC class-I
# Assay: Surface expression of MHC class I in transduced Jurkat T-cells (FACS)
# Format: cell-based, human
# Details: HIV nef as positive control
# Method: FIGS. 5A-5E. (FIG. 5A) Amino acids alignment between Rex-orfI protein (p16) (SEQ ID NO: 10) and p12/p8 (SEQ ID NO: 11). Amino acids changes are underlined. Jurkat T-cells (FIG. 5B) or THP-1 cells (FIG. 5C) were transduced with lentiviral GFP vector expressing p12/p8 HA tag, or p16-HA tag or only GFP, as a control. Forty-eight hours post-transfection proteins were extracted and immunoblot with anti HA antibody was performed. Jurkat T-cells were transduced with GFP-lentiviruses expressing p16, Nef, or only GFP as a control. Cells were stained with HLA-ABC antibody (PE/Cy5 anti-human HLA-A,B,C clone w6/32 BioLegend) and analyzed by FACS. (FIG. 5D) Protein expression was verified by Immunoblot using an anti HA antibody and B-actin as control (cell signaling and appropriate secondary antibodies purchased from Santa Cruz Biotechnology) (FIG. 5E).
# The cDNA synthesized from the rex-orf-I mRNA (FIG. 5A) encodes upon transfection a single protein band (p16) in Jurkat T-cells (FIG. 5B and FIG. 5C). In the human myeloid cell line THP-1 further processing of p16 results in two lower protein bands (FIGS. 5D and 5E).
molecule,measurement,value
"p16: HTLV-1C protein encoded by the rex-orf-I mRNA (SEQ ID NO: 10) (protein, listed as Homo sapiens) MPKTRRGPRRSQRKRPPTPWQPPPFSLQGLCLALQLSSITINPQLRHSFSSSTTLPCLLLPSSLFCLSPLALAALLFLQFSPGAVGGLLLRPPPAPSLLLSLPFQKLSNLFLLLFFPLSFSLSLLLGPSPPITMRFPARWRFLFRRAPSQPA",effect on surface expression of MHC class I,does not affect surface expression of MHC-class I
